According to patent US20230381336A1 (SHANGHAI MIRACOGEN, published 2023):
Numbering of substitutions follows the chain as printed.

T1: human Claudin 18.2 (human, UniProt P56856-2 1-261)
T1 sequence (looked up): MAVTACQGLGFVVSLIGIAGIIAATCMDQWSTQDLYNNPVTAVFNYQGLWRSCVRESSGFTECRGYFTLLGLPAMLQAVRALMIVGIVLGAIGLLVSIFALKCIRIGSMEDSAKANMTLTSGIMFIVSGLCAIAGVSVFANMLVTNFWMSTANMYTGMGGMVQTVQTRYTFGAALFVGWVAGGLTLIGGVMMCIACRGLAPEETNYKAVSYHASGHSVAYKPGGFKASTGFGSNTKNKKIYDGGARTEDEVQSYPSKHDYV

T2: human Claudin 18.1 (human, UniProt P56856 1-261)
T2 construct: whole, on cells; Splice variant used as specificity control
T2 sequence (looked up): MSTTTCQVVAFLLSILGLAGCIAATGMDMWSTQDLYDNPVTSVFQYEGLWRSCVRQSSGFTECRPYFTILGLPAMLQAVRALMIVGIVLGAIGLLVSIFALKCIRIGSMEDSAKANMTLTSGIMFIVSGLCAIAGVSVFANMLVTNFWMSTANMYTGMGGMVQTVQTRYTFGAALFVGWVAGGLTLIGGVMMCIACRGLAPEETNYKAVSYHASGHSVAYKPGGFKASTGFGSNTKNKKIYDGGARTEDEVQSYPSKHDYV

B1: CM311-18D10-VH3/VL2-ADC (other)
VH: QVQLQESGPGLVKPSETLSLTCTVSGGSISSNYAWNWIRQPPGKGLEWIGYINYSGNTNYNPSLKSRVTISRDTSKNQFSLKLSSVTAADTAVYYCATSYYGNSFIYWGQGTLVTVSS
VL: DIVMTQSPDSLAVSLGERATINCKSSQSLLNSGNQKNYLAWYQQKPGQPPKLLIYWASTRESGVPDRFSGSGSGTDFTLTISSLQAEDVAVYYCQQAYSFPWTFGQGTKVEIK
modifications: MC-vc-PAB-MMAE coupled to free cysteine thiols of the DTT-reduced antibody; average DAR 3.5 per antibody; sites not stated
B2: CM311-18D10-VH6/VL2-ADC (other)
VH: B1 VH with N53Y
VL: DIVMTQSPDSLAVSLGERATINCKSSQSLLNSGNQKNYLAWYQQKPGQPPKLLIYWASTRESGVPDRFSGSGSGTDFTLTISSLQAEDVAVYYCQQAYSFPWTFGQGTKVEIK
modifications: MC-vc-PAB-MMAE coupled to free cysteine thiols of the DTT-reduced antibody; average DAR 3.4 per antibody; sites not stated
B3: 18D10 chimera (antibody, V domains shown)
VH: DVQLQESGPGLVKPSQSLSLTCTVTGYSITSNYAWNWIRQFPGNKLEWMGYINYSGNTNYNPSLKSRISITRDTSKNQFFLQLNSVTAEDTATYYCATSYYGNSFIYWGQGTLVTVSA
VL: DIVMTQSPSSLTVTAGEKVTMSCKSSQSLLNSGNQKNYLTWYQQKPGQPPKLLIYWASTRESGVPDRFTGSGSGTDFTLTISSVQAEDLAVYYCQNAYSFPWTFGGGTKLEIK
notes: also called Clone 18D10; 18D10 mVH / 18D10 mVL
B4: 18A9 chimera (antibody, V domains shown)
VH: QVQLQQSGREVVRPGTSVKVSCKPSGYAFTNYLIDWVKQRPGQGLEWIGGINPGSGDTVYNEKFKAKATLTADKSSMTANMQLSSLTSDDSAVYFCARRVRGNSFDSWGQGTLVTVSA
VL: B3 VL with T5S, T75K, V91L, A97N, S99F, F100Y, W102L, G106A, I112L
notes: also called Clone 18A9; 18A9 mVH / 18A9 mVL
B5: CM311-18A9-VH7/VL2-ADC (other)
VH: QVQLVQSGAEVKKPGASVKVSCKPSGYTFTNYLIDWVRQAPGQGLEWMGGINPGSGDTVYNEKFQGRVTLTADTSTSTVYMELSSLRSEDTAVYFCARRVRGNSFDSWGQGTLVTVSS
VL: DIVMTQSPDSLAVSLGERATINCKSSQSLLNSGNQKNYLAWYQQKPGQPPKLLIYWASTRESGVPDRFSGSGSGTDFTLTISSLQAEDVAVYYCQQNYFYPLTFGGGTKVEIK
modifications: MC-vc-PAB-MMAE coupled to free cysteine thiols of the DTT-reduced antibody; average DAR 3.0 per antibody; sites not stated

Experiments:
[1] = biological target: T1, human Claudin 18.2; test: cell-based or functional assay
[2] = biological target: T2, human Claudin 18.1; test: flow cytometry (iQue) on HEK293 cells stably expressing human Claudin 18.1
Experimental: The cells were gently tapped, and 50 μL of serially diluted antibodies were added to each well (antibody concentration starting from 100 nM, 5-fold dilution for 8 gradients), and incubated at 4° C. for 1 hour. After the incubation, 140μL of 0.5% BSA was added to each well to wash 3 times, and 30 μL/well of secondary antibody AlexaFluro647 anti-human IgG (Jackson ImmunoResearch, Cat: 109-606-170) was added, and incubated at 4° C. for 40 minutes. After the incubation, 140 μL of 0.5% BSA was added to each well to wash 3 times, and finally each well was resuspended in 50 μL of PBS for detection by flow cytometry (iQue Screener).

| Binder | Mean IC50 of cell killing, LT-1C8 cells (KATO stable cell line, medium Claudin 18.2 expression), 96 h, CCK-8 or Presto-Blue [1] [ng/mL] | Mean IC50 of cell killing, LT-M11 cells (KATO stable cell line, high Claudin 18.2 expression), 96 h, CCK-8 or Presto-Blue [1] [ng/mL] | Mean IC50 of cell killing, row without a cell line label printed under LT-M11 (taken as a second LT-M11 series) [1] [ng/mL] | binding result [2] |
| --- | --- | --- | --- | --- |
| B1 | 520 | 200 | 132 | – |
| B2 | 615 | 350 | 147 | – |
| B3 | – | – | – | no binding |
| B4 | – | – | – | no binding |
| B5 | 111 | 156 | 51.2 | – |
